According to patent US20220289856A1 (IGM BIOSCIENCES, published 2022):

T1: recombinant human CD123 protein (Sino Biological 10518-H08H-50) (human, UniProt P26951 19-305)
T1 construct: also called IL-3 receptor alpha chain; IL-3Rα
T1 sequence (looked up): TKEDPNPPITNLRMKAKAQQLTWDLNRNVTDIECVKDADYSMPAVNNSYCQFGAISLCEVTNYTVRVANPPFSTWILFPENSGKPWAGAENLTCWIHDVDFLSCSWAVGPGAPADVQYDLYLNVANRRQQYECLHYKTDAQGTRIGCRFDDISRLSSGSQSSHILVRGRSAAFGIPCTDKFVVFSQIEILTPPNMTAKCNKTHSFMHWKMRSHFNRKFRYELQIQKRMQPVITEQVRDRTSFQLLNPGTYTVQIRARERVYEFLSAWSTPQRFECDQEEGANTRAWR

B1: anti-CD123×CD3 IgM #1 (bispecific antibody)
heavy: QVQLQQSGAEVKKPGASVKVSCKASGYTFTDYYMKWVKQSHGKSLEWMGDIIPSNGATFYNQKFKGKATLTVDRSTSTAYMELSSLRSEDTAVYYCARSHLLRASWFAYWGQGTLVTVSSGSASAPTLFPLVSCENSPSDTSSVAVGCLAQDFLPDSITFSWKYKNNSDISSTRGFPSVLRGGKYAATSQVLLPSKDVMQGTDEHVVCKVQHPNGNKEKNVPLPVIAELPPKVSVFVPPRDGFFGNPRKSKLICQATGFSPRQIQVSWLREGKQVGSGVTTDQVQAEAKESGPTTYKVTSTLTIKESDWLSQSMFTCRVDHRGLTFQQNASSMCVPDQDTAIRVFAIPPSFASIFLTKSTKLTCLVTDLTTYDSVTISWTRQNGEAVKTHTNISESHPNATFSAVGEASICEDDWNSGERFTCTVTHTDLPSPLKQTISRPKGVALHRPDVYLLPPAREQLNLRESATITCLVTGFSPADVFVQWMQRGQPLSPEKYVTSAPMPEPQAPGRYFAHSILTVSEEEWNTGETYTCVVAHEALPNRVTERTVDKSTGKPTLYNVSLVMSDTAGTCY
light: not shown
chain: not shown
notes: also called Anti-CD123 XCD3 IgM #1
B2: IGM #B-b-J*-H1 (bispecific antibody)
VH: QIQLVQSGPELKKPGETVKISCKASGYIFTNYGMNWVKQAPGKSFKWMGWINTYTGESTYSADFKGRFAFSLETSASTAYLHINDLKNEDTATYFCARSGGYDPMDYWGQGTSVTVSS
VL: DIVLTQSPASLAVSLGQRATISCRASESVDNYGNTFMHWYQQKPGQPPKLLIYRASNLESGIPARFSGSGSRTDFTLTINPVEADDVATYYCQQSNEDPPTFGAGTKLELK
J-chain: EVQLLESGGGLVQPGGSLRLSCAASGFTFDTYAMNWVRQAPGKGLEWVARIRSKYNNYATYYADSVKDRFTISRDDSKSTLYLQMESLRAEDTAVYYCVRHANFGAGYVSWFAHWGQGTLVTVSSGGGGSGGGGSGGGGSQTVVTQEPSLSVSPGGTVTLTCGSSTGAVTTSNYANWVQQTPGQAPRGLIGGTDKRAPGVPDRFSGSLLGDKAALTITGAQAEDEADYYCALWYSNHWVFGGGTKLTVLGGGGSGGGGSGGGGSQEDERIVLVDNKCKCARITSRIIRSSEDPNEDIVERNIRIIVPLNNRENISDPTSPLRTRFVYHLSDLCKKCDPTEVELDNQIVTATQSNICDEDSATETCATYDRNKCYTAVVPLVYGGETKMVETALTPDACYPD
B3: IGM #C-b-J*-H1 (bispecific antibody)
VH: QVQLQQPGAELVRPGASVKLSCKASGYTFTSYWMNWVKQRPDQGLEWIGRIDPYDSETHYNQKFKDKAILTVDKSSSTAYMQLSSLTSEDSAVYYCARGNWDDYWGQGTTLTVSS
VL: DVQITQSPSYLAASPGETITINCRASKSISKDLAWYQEKPGKTNKLLIYSGSTLQSGIPSRFSGSGSGTDFTLTISSLEPEDFAMYYCQQHNKYPYTFGGGTKLEIK
J-chain: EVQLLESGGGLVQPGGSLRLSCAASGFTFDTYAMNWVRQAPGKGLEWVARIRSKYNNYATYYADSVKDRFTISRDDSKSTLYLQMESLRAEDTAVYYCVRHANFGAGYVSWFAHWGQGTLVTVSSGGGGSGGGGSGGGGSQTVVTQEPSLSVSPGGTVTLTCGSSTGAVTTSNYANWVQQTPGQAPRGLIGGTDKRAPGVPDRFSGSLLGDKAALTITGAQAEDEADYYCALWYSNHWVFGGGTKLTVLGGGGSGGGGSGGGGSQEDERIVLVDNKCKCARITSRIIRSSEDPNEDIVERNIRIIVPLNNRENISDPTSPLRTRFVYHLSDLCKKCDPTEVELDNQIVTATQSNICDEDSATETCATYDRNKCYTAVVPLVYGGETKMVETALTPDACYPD
B4: IGM #F-b-J*-H1 (bispecific antibody)
VH: QVQLQESGPGLVKPSQSLSLTCSVTDYSITSGYYWNWIRQFPGNKLEWMGYISYDGSNNYNPSLKNRISITRDTSKNQFFLKLSSVTTEDTATYYCSRGEGFYFDSWGQGTTLTVSS
VL: DIMMSQSPSSLAVSVGEKFTMTCKSSQSLFFGSTQKNYLAWYQQKPGQSPKLLIYWASTRESGVPDRFTGSGSGTDFTLAISSVMPEDLAVYYCQQYYNYPWTFGGGTKLEIK
J-chain: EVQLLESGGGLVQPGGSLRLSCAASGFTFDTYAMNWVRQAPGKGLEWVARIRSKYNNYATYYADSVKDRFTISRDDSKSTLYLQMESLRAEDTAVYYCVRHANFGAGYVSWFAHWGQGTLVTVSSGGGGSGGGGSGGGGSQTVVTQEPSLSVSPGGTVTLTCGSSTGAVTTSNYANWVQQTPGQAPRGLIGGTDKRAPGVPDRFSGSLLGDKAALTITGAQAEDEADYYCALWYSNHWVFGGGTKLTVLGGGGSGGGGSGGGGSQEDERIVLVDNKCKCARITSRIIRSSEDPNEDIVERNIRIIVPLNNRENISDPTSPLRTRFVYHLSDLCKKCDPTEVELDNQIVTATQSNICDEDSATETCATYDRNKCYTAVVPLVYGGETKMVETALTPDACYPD
notes: IgM pentamer with a modified J-chain
B5: anti-CD123×CD3 IgM #2 (bispecific antibody)
heavy: QVQLVQSGAEVKKPGASVKVSCKASGYTFTSYWMNWVRQAPGQGLEWMGRIDPYDSETHYNQKFKDRVTMTVDKSTSTAYMELSSLRSEDTAVYYCARGNWDDYWGQGTTVTVSSGSASAPTLFPLVSCENSPSDTSSVAVGCLAQDFLPDSITFSWKYKNNSDISSTRGFPSVLRGGKYAATSQVLLPSKDVMQGTDEHVVCKVQHPNGNKEKNVPLPVIAELPPKVSVFVPPRDGFFGNPRKSKLICQATGFSPRQIQVSWLREGKQVGSGVTTDQVQAEAKESGPTTYKVTSTLTIKESDWLSQSMFTCRVDHRGLTFQQNASSMCVPDQDTAIRVFAIPPSFASIFLTKSTKLTCLVTDLTTYDSVTISWTRQNGEAVKTHTNISESHPNATFSAVGEASICEDDWNSGERFTCTVTHTDLPSPLKQTISRPKGVALHRPDVYLLPPAREQLNLRESATITCLVTGFSPADVFVQWMQRGQPLSPEKYVTSAPMPEPQAPGRYFAHSILTVSEEEWNTGETYTCVVAHEALPNRVTERTVDKSTGKPTLYNVSLVMSDTAGTCY
light: EVVLTQSPATLSLSPGERATLSCRASKSISKDLAWYQQKPGQAPRLLIYSGSTLQSGIPARFSGSGSGTDFTLTISSLEPEDFAVYYCQQHNKYPYTFGGGTKVEIKRTVAAPSVFIFPPSDEQLKSGTASVVCLLNNFYPREAKVQWKVDNALQSGNSQESVTEQDSKDSTYSLSSTLTLSKADYEKHKVYACEVTHQGLSSPVTKSFNRGEC
chain: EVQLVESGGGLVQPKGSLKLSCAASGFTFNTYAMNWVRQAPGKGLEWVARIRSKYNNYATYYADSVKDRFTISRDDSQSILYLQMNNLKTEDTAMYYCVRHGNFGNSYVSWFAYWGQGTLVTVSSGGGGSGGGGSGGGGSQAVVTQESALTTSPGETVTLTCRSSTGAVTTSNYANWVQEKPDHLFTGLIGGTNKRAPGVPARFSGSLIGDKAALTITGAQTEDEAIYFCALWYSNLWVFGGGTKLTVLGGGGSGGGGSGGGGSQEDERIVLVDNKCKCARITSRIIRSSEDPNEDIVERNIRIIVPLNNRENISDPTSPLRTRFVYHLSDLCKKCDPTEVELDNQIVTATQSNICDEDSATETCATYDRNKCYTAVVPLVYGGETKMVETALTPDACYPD
B6: anti-CD123×CD3 IgG #1 (bispecific antibody)
heavy 1: QVQLQQSGAEVKKPGASVKVSCKASGYTFTDYYMKWVKQSHGKSLEWMGDIIPSNGATFYNQKFKGKATLTVDRSTSTAYMELSSLRSEDTAVYYCARSHLLRASWFAYWGQGTLVTVSSASTKGPSVFPLAPSSKSTSGGTAALGCLVKDYFPEPVTVSWNSGALTSGVHTFPAVLQSSGLYSLSSVVTVPSSSLGTQTYICNVNHKPSDTKVDKKVEPKSCDKTHTCPPCPAPPVAGPSVFLFPPKPKDTLMISRTPEVTCVVVDVKHEDPEVKFNWYVDGVEVHNAKTKPREEEYNSTYRVVSVLTVLHQDWLNGKEYKCKVSNKALPAPIEKTISKAKGQPREPQVYTLPPSREEMTKNQVSLTCDVSGFYPSDIAVEWESDGQPENNYKTTPPVLDSDGSFFLYSKLTVDKSRWEQGDVFSCSVMHEALHNHYTQKSLSLSPGK
light: not shown
heavy 2: not shown
notes: Construct described in WO 2017/210443 A1, made by commercial vendors; also called bispecific anti-CD123×CD3 IgG #1; anti-CD123×anti-CD3 BiTE construct
B7: IGM #A-b-J*-H1 (bispecific antibody)
chain 1: EVQLVQSGAEVKKPGESLKISCKGSGYSFTDYYMKWARQMPGKGLEWMGDIIPSNGATFYNQKFKGQVTISADKSISTTYLQWSSLKASDTAMYYCARSHLLRASWFAYWGQGTMVTVSS
chain 2: DIVMTQSPDSLAVSLGERATINCESSQSLLNSGNQKNYLTWYQQKPGQPPKPLIYWASTRESGVPDRFSGSGSGTDFTLTISSLQAEDVAVYYCQNDYSYPYTFGQGTKLEIKR
chain 3: not shown
B8: anti-CD123 IgG #1 (antibody, V domains shown)
VH: QVQLQQSGAEVKKPGASVKVSCKASGYTFTDYYMKWVKQSHGKSLEWMGDIIPSNGATFYNQKFKGKATLTVDRSTSTAYMELSSLRSEDTAVYYCARSHLLRASWFAYWGQGTLVTVSS
VL: DFVMTQSPDSLAVSLGERATINCKSSQSLLNTGNQKNYLTWYQQKPGQPPKLLIYWASTRESGVPDRFTGSGSGTDFTLTISSLQAEDVAVYYCQNDYSYPYTFGGGTKLEIKR
notes: Mono-specific IgG version of anti-CD123 #1; also called mono-specific IgG anti-CD123 construct
B9: anti-CD123 IgG #2 (antibody, V domains shown)
VH: QVQLVQSGAEVKKPGASVKVSCKASGYTFTSYWMNWVRQAPGQGLEWMGRIDPYDSETHYNQKFKDRVTMTVDKSTSTAYMELSSLRSEDTAVYYCARGNWDDYWGQGTTVTVSS
VL: EVVLTQSPATLSLSPGERATLSCRASKSISKDLAWYQQKPGQAPRLLIYSGSTLQSGIPARFSGSGSGTDFTLTISSLEPEDFAVYYCQQHNKYPYTFGGGTKVEIKR
notes: Mono-specific IgG version of anti-CD123 #2; also called mono-specific IgG anti-CD123 construct

Legend:
[1] = target: T2, CD123 on AML cells (Kg-1a, MOLM-13, MV4-11, THP-1, PL21) (UniProt P26951 19-378); test: cell-based or functional assay
[2] = target: recombinant human CD3ε protein (Acro Biosystems, CDE-H5256-100) (human, UniProt P07766 23-126); test: ELISA on plate-coated recombinant human CD3ε
recombinant human CD3ε protein (Acro Biosystems, CDE-H5256-100), sequence (P07766 23-126 limits assumed): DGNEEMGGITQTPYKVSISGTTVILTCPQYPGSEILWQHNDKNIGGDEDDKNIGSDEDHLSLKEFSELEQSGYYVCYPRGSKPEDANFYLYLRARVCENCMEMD
Method: (§1) 96-well white polystyrene ELISA plates (Pierce 15042) were coated with 100 μL per well of 0.5 μg/mL recombinant human CD123 protein (Sino Biological 10518-H08H-50) or recombinant human CD3ε protein (Acro Biosystems, CDE-H5256-100) overnight at 4° C. Plates were then washed 5 times with 0.05% PBS-Tween and blocked with 2% BSA-PBS. After blocking, 100 μL of serial dilutions of CD123 IgM or IgG, standards, and controls were added to the wells and incubated at room temperature for 2 hours. The plates were then washed 10 times and incubated with HRP conjugated mouse anti-human kappa (Southern Biotech, 9230-05. 1:6000 diluted in 2% BSA-PBS) for 30 min. After 10 final washes using 0.05% PBS-Tween, the plates were read out using SuperSignal chemiluminescent substrate (ThermoFisher, 37070). Luminescent data were collected on an EnVision plate reader (Perkin-Elmer) and analyzed with GraphPad Prism using a 4-parameter logistic model.

[3] = target: T2, CD123 on AML cells (Kg-1a, MOLM-13, …); test: cell-based or functional assay; remark: listed apart in the source
[4] = target: T1, recombinant human CD123 protein (Sino …); test: ELISA on plate-coated recombinant human CD123, as in Example 2
Method: as §1

[5] = target: T1, recombinant human CD123 protein (Sino …); test: ELISA on plate-coated recombinant human CD123
Method: as §1

Binder | binding result [2] | T Cell-Directed Killing EC50 (pM), MV411, Strong Donor T cells [3] [pM] | T Cell-Directed Killing EC50 (pM), MV411, Weak Donor T cells [3] [pM] | T Cell-Directed Killing EC50 (pM), PL21, Strong Donor T cells [3] [pM] | T Cell-Directed Killing EC50 (pM), THP-1, Strong Donor T cells [3] [pM] | EC50 [4] [nM] | binding result [5] | further results
B1 | binds |  |  |  |  |  |  | T cell-directed killing of MV4-11 cells (luciferase), EC50 [1]: 0.0136 nM; T cell-directed killing of THP-1 cells (luciferase), EC50 [1]: 0.0111 nM
B2 |  | 41.2 | 35.3 | 4.9 | 12.9 | 0.298 |  | T Cell-Directed Killing EC50 (pM), PL21, Weak Donor T cells [3]: 227 pM; T Cell-Directed Killing EC50 (pM), THP-1, Weak Donor T cells [3]: 46.2 pM
B3 |  | 0.1 | 528 | 147 | 104 | 0.354 |  | T Cell-Directed Killing EC50 (pM), THP-1, Weak Donor T cells [3]: 990 pM
B4 |  | 273 | 1080 | 102 | 66.3 | 0.53 |  | 
B5 | binds |  |  |  |  |  | binds | 
B6 | binds |  |  |  |  |  |  | 
B7 |  |  |  |  |  | 0.198 |  | 
B8 | no binding |  |  |  |  |  | binds | 
B9 | no binding |  |  |  |  |  | binds | 
